Several values for one entry are separate records, joined by “and”; a condition that tells them apart may be missing. Equal entries are not always repeated. Where two headings read alike, the source gives them in different places.
What was measured:
[1] = biological target: MtaLon-M217A (Meiothermus taiwanensis); assay: cryo-EM structure; MtaLon-M217A 1 μM (as hexamer) with 10 μM casein and 5 mM ADP, 3 h
[2] = biological target: MtaLon-Y397A/S678A (Meiothermus taiwanensis); assay: cryo-EM structure; MtaLon-Y397A/S678A 1 μM (as hexamer) with 10 μM casein and 5 mM ATPγS, 3 h
[3] = biological target: MtaLon-S678A (Meiothermus taiwanensis); assay: cryo-EM structure; MtaLon-S678A 1 μM (as hexamer) with 10 μM casein and 5 mM ADP, overnight
[4] = biological target: MtaLon-S678A (Meiothermus taiwanensis); assay: as above; remark: listed apart in the source
[5] = biological target: fluorescein isothiocyanate (FITC)-labeled casein (UniProt P02662); assay: fluorescence polarisation; MtaLon samples serially diluted (5 µM to 0.01 µM) mixed with 1.25 µM FITC-casein, 1 mM ADP, 4 °C, 3 h; triplicates
Chain of UniProt P02662 (P02662 16-214): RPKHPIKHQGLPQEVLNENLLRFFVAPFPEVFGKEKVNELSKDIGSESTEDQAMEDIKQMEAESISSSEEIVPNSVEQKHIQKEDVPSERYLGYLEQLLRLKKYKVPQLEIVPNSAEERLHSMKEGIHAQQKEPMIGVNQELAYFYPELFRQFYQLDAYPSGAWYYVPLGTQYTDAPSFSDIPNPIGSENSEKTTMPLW

[6] = biological target: MtaLon-Y224S (Meiothermus taiwanensis); assay: cryo-EM structure; MtaLon-Y224S 1 μM (as hexamer) incubated with 5 mM ATPγS overnight
[7] = biological target: MtaLon-Y224S (Meiothermus taiwanensis); assay: cryo-EM structure; 10 μM ΔN-E613K and 5 mM ADP incubated with 1 μM MtaLon-Y224S at 4 °C for 1 h, mixture purified on Superose 6 Increase; 5+1 heteromeric complex
[8] = biological target: Meiothermus taiwanensis LonA, wild type, full length (Meiothermus taiwanensis); assay: cryo-EM structure; wild-type MtaLon 1 μM (as hexamer) incubated with 5 mM ADP overnight; single-particle reconstruction without symmetry
[9] = biological target: Meiothermus taiwanensis LonA, wild type, full length (Meiothermus taiwanensis); assay: cryo-EM structure; wild-type MtaLon 1 μM (as hexamer) without any nucleotide (MtaLon-Apo)
[10] = biological target: Meiothermus taiwanensis LonA, wild type, full length (Meiothermus taiwanensis); assay: cryo-EM structure; wild-type MtaLon 1 μM (as hexamer) incubated with 5 mM ADP overnight; single-particle reconstruction without symmetry; remark: listed apart in the source
[11] = biological target: Meiothermus taiwanensis LonA, wild type, full length (Meiothermus taiwanensis); assay: cryo-EM structure; wild-type MtaLon 1 μM (as hexamer) without any nucleotide (MtaLon-Apo); remark: listed apart in the source

MtaLon-M217A (enzyme)
stoichiometry N [1]: 5 and 6

MtaLon-Y397A/S678A (enzyme)
stoichiometry N [2]: 5 and 6

MtaLon-S678A (enzyme)
stoichiometry N [3]: 6
stoichiometry N [4]: 5
Kd [5]: 1380 nM

MtaLon-Y224S (enzyme)
stoichiometry N [6]: 5 and 6
stoichiometry N [7]: 5 and 6

Meiothermus taiwanensis LonA, wild type, full length (enzyme)
stoichiometry N [8]: 3 and 4
stoichiometry N [9]: 3 and 4
stoichiometry N [10]: 5 and 6
stoichiometry N [11]: 5 and 6

Reference: PMC10643698
